Measured values as given in patent US9255270B2, “Methods used in sensitizing invasive glioblastoma to therapeutic treatment” (Translational Genomics Research Institute, priority 2009, dated 2016).

How the values were obtained:
[1] = system: Akt-Ser473 phosphorylation; assay: Western blot of Akt-Ser473 phosphorylation in TWEAK-treated glioma cells; type: cell-based, Human
Procedure: (§1) Human astrocytoma cell lines T98G, U87, U118, SNB19 (American Type Culture Collection) and SF767 (University of California at San Francisco) were maintained in Dulbecco's modified Eagle's medium (DMEM)+10% heat inactivated fetal bovine serum (FBS) in a 37° C., 5% CO2 atmosphere. In all assays treated with TWEAK, cells were cultured in reduced serum (0.5% FBS) for 16 h prior to stimulation with recombinant TWEAK at 100 ng/ml in DMEM+0.1% BSA for the indicated times.
(§2) Immunoblotting and protein determination experiments were performed as described previously (See Reference 11). In some experiments, TWEAK (100 ng/ml) was preincubated with 2.5 μg/ml soluble Fn14-Fc decoy receptor or control Fc protein at 37° C. for 15 min before adding it to cells (See Reference 26). Also, in some cases, cells were pretreated with the PI3K inhibitor LY294002 (10 μM) for 10 min prior to TWEAK addition. For immunoprecipitation, cells were lysed on ice for 10 min in a buffer containing 10 mM Tris-HCl, pH 7.4, 0.5% Nonidet P-40, 150 mM NaCl, 1 mM phenylmethylsulfonyl fluoride, 1 mM EDTA, 2 mM sodium vanadate, 10 μg/ml aprotinin, and 10 μg/ml leupeptin (Sigma). […] Samples were then resuspended in 2×SDS sample buffer and boiled in the presence of 2-mercaptoethanol (Sigma), separated by SDS-PAGE, transferred to nitrocellulose for 1 h at 4° C., and proteins were detected as described previously (See Reference 27). […]
Referring now to FIG. 1, T98G and SF767 glioma cells were treated with TWEAK and then harvested at the indicated times. Protein lysates were analyzed by Western blotting using antibodies to Akt Ser-473, total Akt, and α-tubulin. […] Total cell lysates were collected after 10 min of TWEAK treatment and analyzed for phosphorylated Akt-473, total Akt, and α-tubulin. […] Cells were treated with TWEAK for 10 minutes and protein lysates were analyzed for phosphorylated Akt-473, total Akt, Rac1 and α-tubulin. […]

[2] = system: BAD (Ser 136) phosphorylation; assay: PhosphoBAD (Ser 136) sandwich ELISA; set-up: species or system Human; conditions: cell-based ELISA; glioma cells
Procedure: Phosphorylation levels of BAD (Ser 136) were determined using a cell-based ELISA. Glioma cells were transfected with siRNA oligonucleotides against AKT1, AKT2, or non-mammalian GL2 luciferase control siRNA and incubated overnight. The cells were cultured overnight in DMEM with 0.5% FBS prior to TWEAK or control PBS addition in DMEM with 0.1% BSA for 15 min. Total cellular lysates were collected according to manufacturer's instructions utilizing the PathScan Sandwich ELISA kit (Cell Signaling). Each sample (100 μg total protein) was diluted 1:1 in sample buffer for a final volume of 200 μL prior to addition to the designated microstrip wells previously coated by the manufacturer with a BAD rabbit monoclonal capture antibody. The microstrips were then sealed and incubated overnight at 4° C. on a plate shaker. […] Stop solution was omitted and absorbance read at 600 nm (See Reference 29).
(§3) In FIGS. 18 and 19, TWEAK-induced BAD phosphorylation on serine 136 is dependent upon Akt2 function. […] Cellular lysates were collected and analyzed for phosphorylated BAD Ser-136 and total BAD by ELISA. […] After 72 hours protein lysates were collected and analyzed by Western blotting for BAD and α-tubulin. […] Cells with condensed, fragmented chromatin were manually scored as apoptotic cells. At least 10 fields (total of 1000 cells) were evaluated and data reported as apoptotic cells/total cells×100. […]

Akt1 = assay: Immunoprecipitation with isoform-specific antibody, immunoblot for phospho Akt-473; type: cell-based, Human; conditions: T98G cells; TWEAK 10 min
Procedure: as §2
(§4) The protein expression of Akt1 and Akt2 across five different glioma cell lines was assessed. […]
(§5) Akt1 and Akt2 are expressed in glioma cell lines and are phosphorylated in TWEAK stimulated cells. Referring now to FIG. 10: T98G, SNB19, SF767, U87, and U118 cell lysates were analyzed for endogenous levels of Akt1 and Akt2 by Western blotting. To monitor gel loading, α-tubulin protein levels were also analyzed. […]

Akt2 = assay: as above; type: cell-based, Human; conditions: T98G cells; TWEAK 10 min
Procedure: as §2, §4, §5

[3] = system: T98G and SF767 glioma cells; assay: Apoptotic assay (nuclear morphology of DAPI stained cells); type: cell-based, Human
Procedure: as §1
Apoptotic cells were evaluated by nuclear morphology of DAPI stained cells as described previously (See Reference 11). Briefly, cells with condensed, fragmented chromatin were manually scored as apoptotic cells. At least five fields (total of 1000 cells) were evaluated, and data reported as apoptotic cells/total cells×100. Verification of apoptotic cells was conducted by co-immunofluorescence staining using a monoclonal antibody against activated cleaved caspase 3. At least 1000 cells per treatment were evaluated for condensed chromatin and activated caspase 3 (See Reference 11).
TWEAK stimulation of glioma cell survival depends on Akt2 function. SiRNA specific for Akt1 (FIG. 12) and Akt2 (FIG. 13) suppress expression of Akt1 and Ak2 protein in both. T98G and SF767 glioma cells. […] After 72 hours, protein lysates were collected and analyzed by Western blotting for Akt1, Akt2 and α-tubulin. […] Cells with condensed, fragmented chromatin were manually scored as apoptotic cells. At least 10 fields (total of 1000 cells) were evaluated and data reported as apoptotic cells/total cells×100. […]
as §3

B1: TWEAK: recombinant TWEAK, TNF superfamily ligand of the Fn14 receptor, used at 100 ng/ml (protein)
chain: SAPKGRKTRARRAIAAHYEVHPRPGQDGAQAGVDGTVSGWEEARINSSSPLRYNRQIGEFIVTRAGLYYLYCQVHFDEGKAVYLKLDLLVDGVLALRCLEEFSATAASSLGPQLRLCQVSGLLALRPGSSLRIRTLPWAHLKAAPFLTYFGLFQVH
- Akt-Ser473 phosphorylation after TWEAK treatment (immunoblot of whole cellular lysates) ([1]; TWEAK 100 ng/ml, T98G and SF767 glioma cells): induction of Akt-Ser473 phosphorylation
- duration of TWEAK treatment after which Akt-Ser473 phosphorylation diminished ([1]; TWEAK treatment, T98G and SF767): more than 1 hour
- time after which phosphorylation of Akt-Ser473 was detected ([1]; TWEAK treatment, both T98G and SF767 cell lines): 5 min
- amount of phosphorylated BAD-Ser136 upon TWEAK stimulation [2]: increased approximately two-fold
- amount of total BAD upon TWEAK stimulation [2]: did not change significantly
- induction of phosphorylation of Akt1 following TWEAK treatment (Akt1): two-fold induction
- induction of phosphorylation of Akt2 following TWEAK treatment (Akt2): two-fold induction
- effect of TWEAK pretreatment on apoptosis by cytotoxic or chemotherapeutic agents in cells with BAD expression suppressed ([3]; BAD siRNA transfected glioma cells): still protected glioma cells from apoptosis
- effect of TWEAK pretreatment on TMZ induced cell death ([3]; TWEAK 100 ng/ml 2 hours before TMZ 200 μM): suppressed TMZ induced cell death
- effect of TWEAK pretreatment on cytotoxic therapy-induced apoptosis ([3]; TWEAK 100 ng/ml 2 hours before TRAIL or camptothecin, control siRNA cells): abrogated cytotoxic therapy-induced apoptosis
